Test results from the supplement of paper PMC9170038.

Test system: MS2 coat protein
Assay: apparent KD of MS2 coat protein; designed switch direction (-1 OFF switch, 1 ON switch): -1; higher = weaker reporter binding
Method in brief: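 On Illumina chips, designed RNA switches with common flanks were made by stalled E. coli RNA polymerase. Titrations with SNAP-549-labelled MS2 coat protein, doubling from 0.7 or 1.5 nM to 3 µM, were done with no input, with 200 uM small-molecule ligand, or with an oligonucleotide input. Apparent KD is the median per design over clusters, from curve fits of normalised cluster fluorescence.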

[1] = Eterna round: R95, input ligand: microRNA oligo, concentration not stated
[2] = Eterna round: R95, input ligand: FMN 200 uM
[3] = Eterna round: R95, input ligand: none
[4] = input ligand: microRNA oligo, concentration not stated

| Sequence | apparent KD of MS2 coat protein [1] [nM] | apparent KD of MS2 coat protein (input ligand: FMN 200 uM) [nM] | apparent KD of MS2 coat protein (input ligand: none) [nM] | apparent KD of MS2 coat protein [2] [nM] | apparent KD of MS2 coat protein [3] [nM] | apparent KD of MS2 coat protein [4] [nM] |
| --- | --- | --- | --- | --- | --- | --- |
| GGUGCGUAUGUGAGGAUAUGCUGGUCCUUGGCUCGGCAGAAGGCACAUGAGGAUCACCCAUGUGGUGUCGUACC [salish99_Bmod_ex4_054] (puzzle: Brourd's mod of Exclusion 4) | 141 | – | – | – | – | – |
| ACUGGAUGCAAGCAGGUCCACAUGAGGAUCACCCAUGUUCGUCGGCCAGCAUCGGCUUCUACCGCAAGCCGCGUGCA [Eternabot (L1) Solution 27] (Eterna round: R97, puzzle: Sensor, turn-off variant 1) | – | 15.9 | 18.8 | – | – | – |
| GUGUACGGAGGAUAUAUGUGGCGAGCAUACGCUCGAGCUUCACAUGAGGAUCACCCAUGUAGAAGGCUGUGCAC [JL-ex2-2.12 Brourd mod] (puzzle: Exclusion 2) | 17.9 | – | – | – | – | – |
| AUAGGGUCAGGAUAUUGCGCAGUGGACAUGAGGAUCACCCAUGUGAACUUCGUACCGGGCCAAGAAGGGACAGAAA [Tiersoaso] (puzzle: Exclusion 5) | 11.3 | – | – | 21.7 | 13.4 | – |
| CCGACAUGAGGAUAUCCAUCUGGAUCAGACUAGAUCCUGAUGGAGAAGGUACAUGAGGAUCACCCAUGUUACGG [Eli 4x 4.46] (Eterna round: R97, puzzle: Exclusion 4) | – | 372 | 330 | – | – | – |
| UAUAUGUAAGGAUAUCUCGUCAUGGAGGAAACUCCAUGACGAGAGAAGGUACAUGAGGAUCACCCAUGUCUAUU [Mod of Fisker 24 - Jieux - Exclusion 4] (Eterna round: R97, puzzle: Exclusion 4) | – | 117 | 33.1 | – | – | – |
| UUAACGUCAGGAUAUGCAUAAUAUAUUAUAUUAUAAUAUAUACAUGAGGAUCACCCAUGUAGAAGGGACAUUAU [LRO-Excl2-01-Fireball XL5] (Eterna round: R97, puzzle: Exclusion 2) | – | 42.7 | 29.8 | – | – | – |
| AAUUAAUAUCAGGAUAUGACGUGCGAUAGCACGUCAGAAGGGAUGACAUGAGGAUCACCCAUGUGAUCAAUUAA [E6/1-A4] (Eterna round: R97, puzzle: Exclusion 6) | – | 150 | 33 | – | – | – |
| ACGUGAUAUCUGUCGGUGGACAUGAGGAUCACCCAUGUAAGCUCUUUGCUCGUCUUAUAACCCGGUGACAGACCUUC [Xerile] (puzzle: Sensor v3, turn-off variant 1) | 322 | – | – | 42.3 | 52.8 | – |
| GUGGUGGGUUUUCCGAGUAACAUGAGGAUCACCCAUGUAGAAGUUGAAGGUAUCAAGCGAAUGGCUCGUCAAAUGUG [JR_SV3TOV1_Sub047] (puzzle: Sensor v3, turn-off variant 1) | 17.5 | – | – | 42.3 | 46.4 | – |
| AUCGUGUGAGGAUAUCGAUUAUGGAAGUCUAGGUCCAUACGCGAGAAGGCACAUGAGGAUCACCCAUGUAAUGG [jl-ex4-4.32 ViennaUCT mod] (Eterna round: R97, puzzle: Exclusion 4) | – | 29.8 | 486 | – | – | – |
| GAAGGUGAGCAGGAUAUCCGCGCACGAAUAUAAGGAGAAGGGCUUACAUGAGGAUCACCCAUGUAAGGUGGUAG [Rexequar] (puzzle: Exclusion 6) | 11.9 | – | – | 15.8 | 11.5 | – |
| AGCUAGUCAGGAUAUUCUAAUAAUUACAUGAGGAUCACCCAUGUGCAUAGACAAGGGUGUGAAGAAGGGACUAGCG [Omei Ex5 A7] (Eterna round: R97, puzzle: Exclusion 5) | – | 797 | 2530 | – | – | – |
| UUUUGUUUGCGAGGAUAUGCUUUUAGUAAGUUAGCAGAAGGCGCGUUACAUAGAACCUCUUGUUACAUGAGGAUCACCCAUGUU [JR_ExcNG1_Sub036] (Eterna round: R96, puzzle: Exclusion NG 1) | – | 179 | 168 | – | – | 110 |
| GCGAAAGAAAACAGGUGAAACAUGAGGAUCACCCAUGUCCUCAUUUGCUCGUCUUAUAAGCUAUGCGAAAGCAUAGC [Mat - Sensor v3 - turn-off var 1 - Eli Mod - D52] (puzzle: Sensor v3, turn-off variant 1) | 391 | – | – | 173 | 218 | – |
| AUUGUGUUAGGAUAUAACAACUACUAAUAAAUUAGUAGUUGUUAGAAGGAACAUGAGGAUCACCCAUGUAUGAU [-21.1, -20.3 kcal, A 38%] (Eterna round: R97, puzzle: Exclusion 4) | – | 60 | 29.4 | – | – | – |
| CUGGAAAACGAGGAUAUGCACCGGCUCGCUGACGCAGAAGGCGACACAUGAGGAUCACCCAUGUCGGUACGCGA [salish99_ex6_r004_449] (Eterna round: R97, puzzle: Exclusion 6) | – | 17.2 | 18.8 | – | – | – |

| Sequence | apparent KD of MS2 coat protein [1] [nM] | apparent KD of MS2 coat protein (input ligand: FMN 200 uM) [nM] | apparent KD of MS2 coat protein (input ligand: none) [nM] | apparent KD of MS2 coat protein [2] [nM] | apparent KD of MS2 coat protein [3] [nM] | apparent KD of MS2 coat protein [4] [nM] |
| --- | --- | --- | --- | --- | --- | --- |
| CCGGAUAUGCAGGAUAUCGUAUCGGAAACGAUACGAGAAGGGUAUACAUGAGGAUCACCCAUGUGUCCUACCGG [Fiskers Ex 6 - 20] (puzzle: Exclusion 6) | 23.8 | – | – | – | – | – |
| GGAUUUACUGAGGAUAUUACAUCACCCGAUUGAUAAGAAGGCAGAACAUGAGGAUCACCCAUGUGGGUAGUCAA [Polaris3] (Eterna round: R97, puzzle: Exclusion 6) | – | 70.1 | 111 | – | – | – |
| AGCAGACGAGGAUAUAAACGAUAUAACAUGAGGAUCACCCAUGUACGAUCGAUAGAUCGUUUAGAAGGCGUCUGCU [E5/9-A1] (Eterna round: R97, puzzle: Exclusion 5) | – | 14.5 | 13.1 | – | – | – |
| AGUACUGAGCAGGAUAUAUACAGGAUGCCCUCUGUAGAAGGGCUAACAUGAGGAUCACCCAUGUCCUAUAUGGC [Eternabot (L2) Solution 56] (Eterna round: R97, puzzle: Exclusion 6) | – | 39 | 49.1 | – | – | – |
| ACAUGAGGAUCACCCAUGUCUGGCUGGUCUGUUCCGGCUGUCGAGGAUAUAGUCCGGUGUUCGCGCUAGAAGGUGAGGGCUGGA [Aenatbe mod 44] (Eterna round: R96, puzzle: Exclusion NG 3) | – | 153 | 87.4 | – | – | 68.6 |
| UUUUAACAUGAGGAUCACCCAUGUGAGGAUAUCGAAAUUUAUAUUAAUAUUAUUAUAACGAGAAGGCACAUUUU [JMF 39] (puzzle: Exclusion 1) | 62.2 | – | – | – | – | – |
| GUCCUUUCUGAGGAUAUUAUCCUUUUCGAUUGAUAAGAAGGCAGUACAUGAGGAUCACCCAUGUGGGUUGUCUG [Polaris30] (Eterna round: R97, puzzle: Exclusion 6) | – | 45.8 | 38.2 | – | – | – |
| UACGAGUCAGGAUAUUGGGCAAUAGCAUUACGGAACGAUCACAAGAAGGGACAUGAGGAUCACCCAUGUUAUAU [Candy Rainbow 3] (puzzle: Exclusion 4) | 22.3 | – | – | – | – | – |
| AAAUUGGUAGAGGAUAUCGUACAGGAAACGAUGCGAGAAGGCUGCACAUGAGGAUCACCCAUGUUUAGUUGCGA [EX6 #42] (Eterna round: R97, puzzle: Exclusion 6) | – | 19.2 | 19.4 | – | – | – |
| GGAAAGGUAGGAUAUACGAAAAAAAAGGGUAGAAAAAAAACACAUGAGGAUCACCCAUGUAGAAGGACCAAAAG [salish99_ex2_r3_036] (puzzle: Exclusion 2) | 36.1 | – | – | 44.8 | 33 | – |
| CAAUAUUACUGAGGAUAUCCUAGUGUAUUUCAGGGAGAAGGCGGACUCAACAUGAGGAUCACCCAUGUAAGACGGGUACUAGAU [Ex NG1 #17] (Eterna round: R96, puzzle: Exclusion NG 1) | – | 89.3 | 81.4 | – | – | 42.7 |
| UGUUGUCGCGUAGGAUAUGGCCAACAGGCCCUAGGAUAUCGGAAACGAGAAGGAGCGCCAACAGGCGAGAAGGACGGGACAACU [pwkr exNG2 2xF7 2xFMN.20] (Eterna round: R96, puzzle: Exclusion NG 2) | – | 33 | 10.7 | – | – | 52.7 |
| CAUAGUUACUCAGGAUAUAGUACAUGAGGAUCACCCAUGUAAUAAAUGAGAAUUUCGAAUGUAUACUAGAAGGGAGAAAUCUAC [Ostracism 55 - Jieux - Exclusion NG 2] (Eterna round: R96, puzzle: Exclusion NG 2) | – | 44.5 | 46.1 | – | – | 35.8 |
| CAUUAUGUUGAGGAUAUGCACCAGCUCACUGACGCAGAAGGCGACACAUGAGGAUCACCCAUGUCAGUUCGCGU [salish99_ex6_r004_429] (Eterna round: R97, puzzle: Exclusion 6) | – | 23.5 | 17 | – | – | – |
| AGGAGACAUGAGGAUCACCCAUGUAAGGAUAUGUAGGAGCAGCCGGCUGGUUCGCUCCGCAGAAGGUGCGCGGU [Eternabot (L2) Solution 11] (Eterna round: R97, puzzle: Exclusion 1) | – | 49.3 | 41.3 | – | – | – |
| UCCAGCAUACGGAGAUCCAACAUGAGGAUCACCCAUGUCUGGAAAGCUUUUUGCUUGUCUUAUCCGUCUCUGUGUGU [Design #7] (Eterna round: R97, puzzle: Sensor, turn-off variant 1) | – | 32.7 | 35.8 | – | – | – |
| AGCAUGUGAGGAUAUGUACCUGAGUGCUUUGCGCUCAGGAAACAGAAGGCACAUGAGGAUCACCCAUGUGAAAA [jl-ex4-4.45 ViennaUCT mod] (Eterna round: R97, puzzle: Exclusion 4) | – | 68.7 | 281 | – | – | – |
